Measured values as given in patent publication US20020146750A1 (published 2002).
Substitutions are numbered along the chain they refer to. Each block holds one binder with its values, some of them ahead of it.

Target: T1, MUC1 60-mer peptide NH2-(…)3-COOH (biotinylated in the ELISAs and selections)
T1 construct: also called biotinylated MUC1 60-mer
Experiment: ELISA, soluble Fab, biotinylated MUC1 60-mer; relative signal
Protocol: Soluble Fabs were produced as described (Roovers et al., Br. J. Cancer, 78: 1407-16 (1998)). ELISAs were performed as described by Henderikx et al. (Cancer Res., 58: 4324-4332 (1998)), except the biotinylated MUC1 60-mer was used. The selected PH1 and the affinity-matured antibodies were evaluated for affinity by surface plasmon resonance (SPR) on a BIAcore 2000 apparatus (BIAcore AB, Uppsala, Sweden). Channels of a biotin chip were coated with a MUC1 15-mer, containing the minimal PH1 epitope, PAP, (Ac-PDTRPAPGSTAPPAL-NH₂, (SEQ ID NO:40) 50 RU or 320 RU) or a 60-mer (NH₂-([…])₃-COOH (i.e., containing three copies of SEQ ID NO:8 (von Mensdorff-Pouilly et al., Tumor Biol., 19: 186-195 (1998), 50 RU) in HBS-EP buffer (Pharmacia). One surface was blocked with biotin (15 RU) and used as a negative control. The antibodies were injected in HBS-EP buffer. To minimize rebinding of the antigen binding fragments, the flow speed was 30 μl/sec. Affinity calculation was performed with the BIA-evaluation software provided by the BIAcore. The affinities of the Fabs were calculated according to a 1:1 stoichiometry at steady state.

T1 sequence (peptide, as listed by the source): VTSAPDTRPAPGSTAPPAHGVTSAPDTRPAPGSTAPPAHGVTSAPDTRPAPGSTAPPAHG

B1: 7D1 (Fab, V domains shown)
VH: QVQLVQSGGGLVQPGGSLRLSCAASGFTFRSNAMGWVRQAPGKGLEWVSGISGSGGSTYYADSVKGRFTISRDNSKNTLYLQMNSLRAEDTAVYYCAKHTGGGVWDPIKHWGQGTLVTVSS
VL: EIVLTQSPLSLPVTPGEPASISCRSSQSLLHSNGYTYLDWYLQKPGQSPQLLIYSGSHRASGVPDRFSGSVSGTDFTLRISRVEAEDVGVYYCMQGLQSPFTFGPGTKVDIKR
notes: PH1 Fab variant; also called clone 7D1
binding result: binds

binding result: binds
B2: 11C1 (Fab, V domains shown)
VH: B1 VH with G102E, H110Y
VL: B1 VL
notes: PH1 Fab variant

binding result: binds
B3: 10E1 (Fab, V domains shown)
VH: B1 VH with K109A, H110Y
VL: B1 VL
notes: PH1 Fab variant

binding result: binds
B4: 10B3 (Fab, V domains shown)
VH: B1 VH with K109G, H110Y
VL: B1 VL
notes: PH1 Fab variant

binding result: binds
B5: 11F2 (Fab, V domains shown)
VH: B1 VH with K98I, G102A, K109R, H110Y
VL: B1 VL
notes: PH1 Fab variant

binding result: binds
B6: 10F3 (Fab, V domains shown)
VH: B1 VH with K109V, H110P
VL: B1 VL
notes: PH1 Fab variant

binding result: binds
B7: 10C10 (Fab, V domains shown)
VH: B1 VH with G102V, H110Y
VL: B1 VL
notes: PH1 Fab variant

binding result: binds
B8: 10F9 (Fab, V domains shown)
VH: B1 VH with D106N, K109G
VL: B1 VL
notes: PH1 Fab variant

binding result: binds
B9: 11F9 (Fab, V domains shown)
VH: B1 VH with A97T, K109N, H110Y
VL: B1 VL
notes: PH1 Fab variant

binding result: binds
B10: 11F4 (Fab, V domains shown)
VH: B1 VH with K109S, H110S
VL: B1 VL
notes: PH1 Fab variant

binding result: binds
B11: 11B9 (Fab, V domains shown)
VH: B1 VH with K98R, K109N, H110Y
VL: B1 VL
notes: PH1 Fab variant

B12: 7F3 (Fab, V domains shown)
VH: B1 VH with K98I, H110Y
VL: B1 VL
notes: PH1 Fab variant; also called clone 7F3
binding result: binds

binding result: binds
B13: 11D4 (Fab, V domains shown)
VH: B1 VH with I108M, K109A, H110S
VL: B1 VL
notes: PH1 Fab variant

binding result: binds
B14: 11F7 (Fab, V domains shown)
VH: B1 VH with G102V, I108M, K109N, H110Y
VL: B1 VL
notes: PH1 Fab variant

binding result: binds
B15: 10A9 (Fab, V domains shown)
VH: B1 VH with K109H, H110N
VL: B1 VL
notes: PH1 Fab variant

binding result: binds
B16: 10E10 (Fab, V domains shown)
VH: B1 VH with D106N, K109D, H110Y
VL: B1 VL
notes: PH1 Fab variant

binding result: binds
B17: 10F8 (Fab, V domains shown)
VH: B1 VH with I108M, K109H, H110Y
VL: B1 VL
notes: PH1 Fab variant

binding result: binds
B18: 8F5 (Fab, V domains shown)
VH: B1 VH with K109A, H110Y
VL: B1 VL
notes: PH1 Fab variant
